Data set [1] in a line: In vitro stability in human plasma. The data set is classed as in vitro ADME. To be noted: after 30 minutes of incubation, 37° C., 1.6 μM. The method, then:
(§1) Stability of Compound 7 (human variant) in physiological buffer (Hanks Balanced Salt Solution, HBSS) and in plasma was evaluated in comparison with Compound 3.
(§2) Compound stability was defined as % recovery of the compound after 5 min, 15 min, and 30 min of incubation in the presence of corresponding plasma.
(§3) 200 μL of 1.6 μM Compound 3 and Compound 7 solutions were incubated in the matrix (Hank's Balanced Salt Solution or plasma) at 37° C. for 0, 5, 15, or 30 minutes. The incubation was followed by addition of 200 μL acetonitrile, vortexing and subsequent acidification with 45 μL of pure acetic acid. After additional vortexing, the resulting mixture was centrifuged for 5 min at 14,000 rpm and the supernatant was collected for analysis.
(§4) Determination of the Compound 3 or Compound 7 levels in the supernatant samples prepared as described above was performed using an LC-MS/MS method as follows: 40 μL of 5 μM Compound 7 in 10% acetic acid aqueous solution was added to 160 μL of the supernatant. […]
(§5) Percentages of Compound 3 and Compound 7 recovery after 0 minutes (at the start of the experiment), 5 minutes, 15 minutes, and 30 minutes incubation time points were calculated by dividing the corresponding peak areas by the peak area obtained from the samples prepared with no incubation (0 minutes of incubation time). […]

Data set [2] can be described thus: In vitro stability in dog plasma. To be noted: after 30 minutes of incubation, 37° C., 1.6 μM. The data set is classed as in vitro ADME. As for the experimental part: as §1, §2, §3, §4, §5
Data set [3] in a line: In vitro stability in rat plasma. The data set is classed as in vitro ADME. To be noted: after 30 minutes of incubation, 37° C., 1.6 μM. The method, then:
as §1, §2, §3, §4, §5

The nature of data set [4]: In vitro stability in physiological buffer (Hanks Balanced Salt Solution, HBSS). It is filed as physicochemical. Conditions: 30 minutes incubation, 37° C., 1.6 μM. The method, then: as §1, §2, §3, §4, §5
A short description of data set [5]: Self-assembly by negative stain transmission electron microscopy. It is filed as physicochemical. To be noted: for colloidal structures from self-assembly in isotonic saline (TEM): 20 mg/mL in 0.9% (w/v) sodium chloride; for colloidal structures from self-assembly in water (TEM): 20 mg/mL in sterile water. The method, then: The patterns of self-assembly of Compound 7 and Compound 3 were analyzed by negative stain transmission electron microscopy.
Compound 3 and Compound 7 were dissolved in sterile water or in 0.9% (w/v) sodium chloride in sterile water to obtain a 20 mg/mL solution. Formvar/carbon coated grids were exposed to […] drops of the Compound 3 or Compound 7 solutions for approximately 1 minute, blotted and then exposed to […] drops of sterile water for 10 seconds, blotted again and then stained with 2% (w/v) aqueous uranyl acetate for 30 seconds, The stained samples were exposed to […] drops of sterile water for 10 seconds and blotted dry prior to examination by transmission electron microscopy.

Ends that are not written are not given here.

Consider “TAT-Cys-PTPRS (GRKKRRQRRRCDMAEHTERLKANDSLKLSQEYESI) [Compound 3]”, for which the “recovery rate in human plasma” value in data set [1] is reported as “low stability”. The “recovery rate in dog plasma” value in data set [2] is recorded as “low stability”. Also, in data set [3], the “recovery rate in rat plasma” value is “low stability”. The “% recovery in HBSS” value in data set [4] was “about 42%”. Further, in data set [5], the “colloidal structures from self-assembly in isotonic saline (TEM)” value is recorded as “amyloid-like fibrillar meshwork” and the “colloidal structures from self-assembly in water (TEM)” value is reported as “rod-shaped nanostructures”.
On to “TAT-Cys-human PTPRS wedge domain homodimer (GRKKRRQRRRCDMAEHTERLKANDSLKLSQEYESI; also: disulfide homodimer) [Compound 7]”, for which the “recovery rate in human plasma” value in data set [1] came to 99%. In addition, the “recovery rate in dog plasma” value in data set [2] came to 100%. In addition, the “recovery rate in rat plasma” value in data set [3] was 92%. The “% recovery in HBSS” value in data set [4] was 90%. Besides, in data set [5], the “colloidal structures from self-assembly in isotonic saline (TEM)” value is given as “larger-in-size helical colloidal particles” and the “colloidal structures from self-assembly in water (TEM)” value is given as “rod-shaped nanostructures”.

The record behind these values is US20260286322A1, “PROTEIN TYROSINE P[…] DOMAIN PEPTIDE DIMER FOR NERVOUS SYSTEM REPAIR” (NervGen Pharma Corp., priority 2023, published 2026).
